In US20060031961A1, “Aldehyde reductase” (priority 2004, published 2006):
Values joined by “and” are separate entries in the source; they are usually repeats but may differ in a detail not shown here. Equal entries are not always repeated.

Tested on: aldehyde reductase
Assay: Aldehyde reductase activity assay of expressed, purified proteins (oxidation of NADPH, change in A340)
Assay type: biochemical, Soybean (Glycine max L.)
Method: The activity assay measured oxidation of NADPH on a UV500 UV-Visible double-beam Spectrometer (Unicam) by monitoring the change in A340. The assay was performed at room temperature (approximately 23° C.) by adding all of the following reagents into a 1-mL 1-cm quartz cuvette: 500 μL of 200 mM HEPES-KOH pH 7.0, 200 μL of ddH2O, 100 μL of 1 mM NADPH, 25-50 μL aldehyde reductase extract in a 100 μL total volume of 100 mM HEPES-KOH pH 7.0, 10% glycerol buffer. After these samples were mixed and blanked and were incubated for three minutes and a pre-substrate rate was calculated, the assay was started by addition of the substrate to the sample cuvette (solvent was added to the reference cuvette). Several different substrates were tested with each enzyme preparation. These substrates included the following: 100 μL of 100 mM glyceraldehyde, 10 μL of 100 mM glyceraldehyde, or 100 μL of 0.5% […] hexanal in v/v ethanol, or 100 μL of a carbonyl compounds mixture (ULTRA Scientific, North Kingston, R.I.; formaldehyde, acetaldehyde, propanal, butantal, pentanal, hexanal, heptanal, octanal, nonanal, decanal, cyclohexanone, and crotonaldehdye (in methanol)). The carbonyl compounds mixture contains approximately 16 μmole total aldehyde per assay. Except for the inactivity seen in one aldehyde reductase extract with hexanal as the substrate, both of the aldehyde reductase enzymes were active with each of the different substrates tested (see Table 6). As a control, an extract of E. coli proteins without the expressed aldehyde reductase enzymes was prepared and assayed the same way. […] A Bradford assay was performed to determine protein concentrations in the extracts, and the enzymatic rates were calculated. Table 6 presents the activity (in μmol of NADPH oxidized and were NADPH specific (i.e., no activity was observed when NADH was used as the reductant)/min^−1/mg protein^−1) obtained for the purified protein extracts from the plasmids and the source of the DNA. Enzyme activity was calculated as follows: (ΔA340/min; after correction for pre-substrate addition rates)/(6.2×mg enzyme/mL reaction mixture).

[1] = substrate 1 mM glyceraldehyde, NADPH
[2] = substrate 10 mM glyceraldehyde, 100 μL of 1 mM NADH substituted for NADPH
[3] = substrate 10 mM glyceraldehyde, 100 μL of 10 mM ZnCl2 substituted for 100 μL ddH2O
[4] = substrate 10 mM glyceraldehyde, NADPH, room temperature, pH 7.0
[5] = substrate 100 μL 0.5% hexanal, NADPH
[6] = substrate 100 μL aldehyde mixture (carbonyl compounds mixture), NADPH

B1: sls2c.pk027.a23:fis: soybean aldehyde reductase encoded by clone sls2c.pk027.a23:fis, expressed in E. coli and purified (protein)
chain: MAKSIKFFELNTGAKIPSLGLGTWQAEPGVVAEALTTAIQVGYRHIDCASAYKNQAEIGSALKKLFDDGVVKREDLWITSKLWCSDHAPEDVPKALDKTLQELQLDYLDLYLIHWPVRMKSGTFGLNKEYLEQPDIPNTWRAMEALYDSDKARAIGVSNFSSKKLQDLLDIARVVPAVNQVELHPGWQQPKLRAFCESKEIHLSGYSPLGSPAALKSDILKNPVVTEIAERLGKTPAQVALRWGLQAGHSVLPKSTNESRIKGNFDIFDWSIPQDLMTKISEIKQERLVKASFFVHETYGAYRSIEDFWDGEL
modifications: Glycine max
notes: soybean aldehyde reductase encoded by clone sls2c.pk027.a23:fis, expressed in E. coli and purified
For B1, the Activity [1] was 0.14 μmol · min^−1 · mg protein^−1, the Activity [2] was 0.00 μmol · min^−1 · mg protein^−1 and the Activity [3] was 0.28 μmol · min^−1 · mg protein^−1. The Activity [4] was 0.70 μmol · min^−1 · mg protein^−1 and 0.60 μmol · min^−1 · mg protein^−1 and 0.74 μmol · min^−1 · mg protein^−1, the Activity [5] was 0.00 μmol · min^−1 · mg protein^−1 and the Activity [6] was 0.58 μmol · min^−1 · mg protein^−1.

B2: sr1.pk0003.c5: soybean aldehyde reductase encoded by clone sr1.pk0003.c5:fis, expressed in E. coli and purified (protein)
chain: MAKLIKFFELNTGAKIPSVGLGTWQAEPGVVAKAVTTAILVGYRHIDCAQAYNNQAEIGSALKKLFDDGVVKREDLWITSKLWCSDHASEDVPKALDKTLQDLQLDYLDLYLIHWPVRMKSGSVGFKKEYLDQPDIPSTWKAMEALYDSGKARAIGVSNFSSKKLQDLMNIARVPPAVNQVELHPGWQQPKLHAFCESKGVHLSGYSPLGSPGVLKSDILKNPVVIEIAEKLGKTPAQVALRWGLQTGHSVLPKSTNESRIKGNFDVFDWSIPEEVMDKFSEIKQDRLIKGTFFVDETYGAFKTVEELWDGEL
modifications: Glycine max
notes: soybean aldehyde reductase encoded by clone sr1.pk0003.c5:fis, expressed in E. coli and purified
For B2, the Activity [1] was 0.58 μmol · min^−1 · mg protein^−1, the Activity [2] was 0.00 μmol · min^−1 · mg protein^−1 and the Activity [3] was 0.45 μmol · min^−1 · mg protein^−1. The Activity [4] was 1.65 μmol · min^−1 · mg protein^−1 and 1.90 μmol · min^−1 · mg protein^−1 and 2.24 μmol · min^−1 · mg protein^−1, the Activity [5] was 0.26 μmol · min^−1 · mg protein^−1 and the Activity [6] was 0.55 μmol · min^−1 · mg protein^−1.
